The record followed here is paper PMC2185075 (The Journal of Cell Biology, 1999).

Read-outs that look alike come from different tables or passages of the source.

What all share (assay): two-hybrid
Experiment [1] deals with ASF/SF2, two-hybrid fusion (UniProt Q07955).
Experiment [2] deals with SC35, two-hybrid fusion (UniProt Q01130).
For experiment [3], the target named is ASF/SF2, two-hybrid fusion (UniProt Q07955). The source holds these as a separate data set.
Experiment [4] deals with SC35, two-hybrid fusion (UniProt Q01130). The source holds these as a separate data set.
Experiment [5] has as its target ASF/SF2, two-hybrid fusion (UniProt Q07955). This is another data set of the same source.
The target is the same in experiment [6]. This is another data set of the same source.
The target in experiment [7] is SC35, two-hybrid fusion (UniProt Q01130). The source holds these as a separate data set.
Experiment [8] has as its target T1, U2AF65ΔRS, two-hybrid fusion (UniProt P26368 66-475).
Experiment [9] addresses T2, U2AF65, two-hybrid fusion (UniProt P26368 1-475).
Experiment [10] addresses T1, U2AF65ΔRS, two-hybrid fusion. The source holds these as a separate data set.
For experiment [11], the target named is T2, U2AF65, two-hybrid fusion. The source holds these as a separate data set.

SC35, two-hybrid fusion, sequence (Q01130 whole entry, the tested form may be a part): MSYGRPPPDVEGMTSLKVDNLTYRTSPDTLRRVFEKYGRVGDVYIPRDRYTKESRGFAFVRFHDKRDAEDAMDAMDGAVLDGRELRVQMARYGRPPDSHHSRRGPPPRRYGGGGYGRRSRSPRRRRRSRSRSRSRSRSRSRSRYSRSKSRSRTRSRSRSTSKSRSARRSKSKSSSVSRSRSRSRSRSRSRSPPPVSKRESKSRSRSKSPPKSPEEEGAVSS
ASF/SF2, two-hybrid fusion, sequence (Q07955 whole entry, the tested form may be a part): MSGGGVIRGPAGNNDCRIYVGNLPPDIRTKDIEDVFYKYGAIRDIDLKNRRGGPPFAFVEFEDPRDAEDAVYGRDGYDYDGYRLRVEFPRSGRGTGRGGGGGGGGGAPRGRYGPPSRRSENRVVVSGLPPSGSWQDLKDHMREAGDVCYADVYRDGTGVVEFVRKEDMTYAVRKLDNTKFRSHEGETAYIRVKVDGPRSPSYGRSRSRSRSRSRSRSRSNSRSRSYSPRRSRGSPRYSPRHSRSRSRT
T1 sequence (P26368 66-475, stated change not applied): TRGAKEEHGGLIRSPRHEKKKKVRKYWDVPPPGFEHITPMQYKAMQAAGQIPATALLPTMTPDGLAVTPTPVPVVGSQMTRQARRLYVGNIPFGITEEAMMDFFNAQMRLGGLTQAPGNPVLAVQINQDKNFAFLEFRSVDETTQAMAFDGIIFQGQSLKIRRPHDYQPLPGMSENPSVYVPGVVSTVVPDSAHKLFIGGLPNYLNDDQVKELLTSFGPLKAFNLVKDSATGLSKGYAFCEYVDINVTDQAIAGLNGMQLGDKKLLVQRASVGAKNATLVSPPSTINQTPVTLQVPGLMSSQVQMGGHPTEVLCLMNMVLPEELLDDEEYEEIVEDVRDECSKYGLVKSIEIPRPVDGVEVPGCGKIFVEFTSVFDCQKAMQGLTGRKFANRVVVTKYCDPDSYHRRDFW
T2 sequence (P26368 whole entry, the tested form may be a part, one chain of several): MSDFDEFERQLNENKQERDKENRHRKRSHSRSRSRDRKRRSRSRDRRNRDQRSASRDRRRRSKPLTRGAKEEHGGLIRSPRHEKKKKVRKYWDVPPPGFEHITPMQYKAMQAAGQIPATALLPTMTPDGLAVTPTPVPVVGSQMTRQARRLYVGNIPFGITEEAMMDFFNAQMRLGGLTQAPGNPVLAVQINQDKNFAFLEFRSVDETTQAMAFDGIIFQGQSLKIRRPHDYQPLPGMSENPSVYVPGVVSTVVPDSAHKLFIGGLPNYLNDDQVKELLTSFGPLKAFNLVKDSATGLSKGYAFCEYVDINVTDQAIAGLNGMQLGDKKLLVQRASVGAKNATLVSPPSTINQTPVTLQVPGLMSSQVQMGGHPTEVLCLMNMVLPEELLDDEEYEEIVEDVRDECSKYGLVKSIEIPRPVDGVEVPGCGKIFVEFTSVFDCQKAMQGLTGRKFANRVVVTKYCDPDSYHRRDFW

Regarding “U1-70K, two-hybrid fusion (from UniProt P08621 1-437) (natural protein; other documents disagree on this pair)”, the percentage of the maximal two-hybrid interaction (β-galactosidase) in [1] is 100%; with SC35, two-hybrid fusion [2] it was 104%; in experiment [3], 98%; with SC35, two-hybrid fusion [4] it was 86%; in experiment [5], 35%; in [6], 100%. The same molecule showed a percentage of the maximal two-hybrid interaction (β-galactosidase) with SC35, two-hybrid fusion [7] of 100%.

B1: U2AF35ΔRS, two-hybrid fusion (domain or fragment)
chain: MAEYLASIFGTEKDKVNCSFYFKIGACRHGDRCSRLHNKPTFSQTIALLNIYRNPQNSSQSADGLRCAVSDVEMQEHYDEFFEEVFTEMEEKYGEVEEMNVCDNLGDHLVGNVYVKFRREEDAEKAVIDLNNRWFNGQPIHAELSPVTDFREACCRQYEMGECTRGGFCNFMHLKPISRELRRELYGRRR
As for B1, the “two-hybrid β-galactosidase, fold over background (empty prey vector)” value in [8] stood at 347 fold over background; in [9] it was 308 fold over background; in experiment [10] it was 460 fold over background; in [11], 93 fold over background.

B2: U2AF35, two-hybrid fusion (natural protein)
chain: MAEYLASIFGTEKDKVNCSFYFKIGACRHGDRCSRLHNKPTFSQTIALLNIYRNPQNSSQSADGLRCAVSDVEMQEHYDEFFEEVFTEMEEKYGEVEEMNVCDNLGDHLVGNVYVKFRREEDAEKAVIDLNNRWFNGQPIHAELSPVTDFREACCRQYEMGECTRGGFCNFMHLKPISRELRRELYGRRRKKHRSRSRSRERRSRSRDRGRGGGGGGGGGGGGRERDRRRSRDRERSGRF
In the case of B2, the “two-hybrid β-galactosidase, fold over background (empty prey vector)” value in [8] came out at 340 fold over background.
